Data published in the supplement of paper PMC10567573.

B1: KRT18 (parent)
chain: RVRSLETENRRLESKIREHLEKKG
B2: ZNF649 (parent)
chain: YHTGKTPFVCPECGQPCSQKSGLI

Variants of: B1
Assay: protein stability index of a GFP-peptide fusion (GPS, HEK-293T) (PSI 1-6); higher = more stable
Details: c terminus: a fixed tail appended
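Also: lentivirally expressed fusions sorted by FACS into six bins by GFP to DsRed ratio, PSI derived from sequencing read proportions per bin multiplied by bin number.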

Variant | protein stability index
EVRSLETENRRLESKIREHLEKKG | 3.5
CVRSLETENRRLESKIREHLEKKG | 4.66
DVRSLETENRRLESKIREHLEKKG | 4.9
HVRSLETENRRLESKIREHLEKKG | 4.14
PVRSLETENRRLESKIREHLEKKG | 4.45
YVRSLETENRRLESKIREHLEKKG | 1.78
VVRSLETENRRLESKIREHLEKKG | 4.19
GVRSLETENRRLESKIREHLEKKG | 4.36
MVRSLETENRRLESKIREHLEKKG | 4.09
FVRSLETENRRLESKIREHLEKKG | 1.21
QVRSLETENRRLESKIREHLEKKG | 4.7
NVRSLETENRRLESKIREHLEKKG | 4.56
IVRSLETENRRLESKIREHLEKKG | 3.38
KVRSLETENRRLESKIREHLEKKG | 3.94

Variants of: B2
Assay: as above
Details: c terminus: a fixed tail appended

Variant | protein stability index
YHTGKTPFVCPECGQPCSQKSGEI | 1.03
YHTGKTPFVCPECGQPCSQKSGQI | 3.01
YHTGKTPFVCPECGQPCSQKSGII | 2.03
YHTGKTPFVCPECGQPCSQKSGCI | 2.83
YHTGKTPFVCPECGQPCSQKSGGI | 4.1
YHTGKTPFVCPECGQPCSQKSGPI | 2.15
YHTGKTPFVCPECGQPCSQKSGKI | 2.56
YHTGKTPFVCPECGQPCSQKSGYI | 1.72
YHTGKTPFVCPECGQPCSQKSGTI | 2.2
YHTGKTPFVCPECGQPCSQKSGSI | 2.72
YHTGKTPFVCPECGQPCSQKSGNI | 3.38
YHTGKTPFVCPECGQPCSQKSGRI | 1.92
YHTGKTPFVCPECGQPCSQKSGWI | 1.16
YHTGKTPFVCPECGQPCSQKSGVI | 2.58
YHTGKTPFVCPECGQPCSQKSGHI | 2.05
YHTGKTPFVCPECGQPCSQKSGMI | 1.46
YHTGKTPFVCPECGQPCSQKSGDI | 2.12
YHTGKTPFVCPECGQPCSQKSGAI | 1.59
YHTGKTPFVCPECGQPCSQKSGLC | 3.08
YHTGKTPFVCPECGQPCSQKSGLM | 1.84
YHTGKTPFVCPECGQPCSQKSGLF | 2.92
YHTGKTPFVCPECGQPCSQKSGLE | 2.12
YHTGKTPFVCPECGQPCSQKSGLN | 1.99
YHTGKTPFVCPECGQPCSQKSGLY | 1.59
YHTGKTPFVCPECGQPCSQKSGLK | 1.84
YHTGKTPFVCPECGQPCSQKSGLG | 2.94
YHTGKTPFVCPECGQPCSQKSGLV | 1.67

Variant | protein stability index
YHTGKTPFVCPECGQPCSQKSGLL | 1.52
YHTGKTPFVCPECGQPCSQKSGLD | 1.36
YHTGKTPFVCPECGQPCSQKSGLA | 1.08
YHTGKTPFVCPECGQPCSQKSGLS | 1.45
YHTGKTPFVCPECGQPCSQKSGLP | 1.54
YHTGKTPFVCPECGQPCSQKSGLH | 2.42
YHTGKTPFVCPECGQPCSQKSGLQ | 2.33
YHTGKTPFVCPECGQPCSQKSGLT | 2.01
YHTGKTPFVCPECGQPCSQKSALI | 1.81
YHTGKTPFVCPECGQPCSQKSYLI | 3
YHTGKTPFVCPECGQPCSQKSQLI | 2.2
YHTGKTPFVCPECGQPCSQKSHLI | 2.72
YHTGKTPFVCPECGQPCSQKSILI | 2.15
YHTGKTPFVCPECGQPCSQKSNLI | 2.3
YHTGKTPFVCPECGQPCSQKSELI | 2.32
YHTGKTPFVCPECGQPCSQKSRLI | 2.22
YHTGKTPFVCPECGQPCSQKSFLI | 2.34
YHTGKTPFVCPECGQPCSQKSTLI | 1.65
YHTGKTPFVCPECGQPCSQKSWLI | 1.63
YHTGKTPFVCPECGQPCSQKSCLI | 2.19
YHTGKTPFVCPECGQPCSQKSLLI | 2.97
YHTGKTPFVCPECGQPCSQKSMLI | 1.87
YHTGKTPFVCPECGQPCSQKSDLI | 1.49
YHTGKTPFVCPECGQPCSQKSPLI | 2.91
YHTGKTPFVCPECGQPCSQKSVLI | 2.92
YHTGKTPFVCPECGQPCSQKSSLI | 2.63
YHTGKTPFVCPECGQPCSQKSKLI | 1.89

Variant | protein stability index
YHTGKTPFVCPECGQPCSQTSGLI | 1.8
YHTGKTPFVCPECGQPCSQRSGLI | 2.69
YHTGKTPFVCPECGQPCSQVSGLI | 1.43
YHTGKTPFVCPECGQPCSQPSGLI | 2.1
YHTGKTPFVCPECGQPCSQYSGLI | 3.04
YHTGKTPFVCPECGQPCSQNSGLI | 1.07
YHTGKTPFVCPECGQPCSQQSGLI | 3.76
YHTGKTPFVCPECGQPCSQSSGLI | 2.53
YHTGKTPFVCPECGQPCSQKEGLI | 1.85
YHTGKTPFVCPECGQPCSQKHGLI | 1.81
YHTGKTPFVCPECGQPCSQKPGLI | 1.9
YHTGKTPFVCPECGQPCSQKAGLI | 1.4
YHTGKTPFVCPECGQPCSQKFGLI | 1.89
YHTGKTPFVCPECGQPCSQKQGLI | 1.56
YHTGKTPFVCPECGQPCSQKTGLI | 1.96
YHTGKTPFVCPECGQPCSQKIGLI | 1.67
YHTGKTPFVCPECGQPCSQKKGLI | 1.4
YHTGKTPFVCPECGQPCSQKMGLI | 2.26
YHTGKTPFVCPECGQPCSQKYGLI | 2.56
YHTGKTPFVCPECGQPCSQKDGLI | 1.76
YHTGKTPFVCPECGQPCSQKGGLI | 2.41
YHTGKTPFVCPECGQPCSQKLGLI | 2.15
YHTGKTPFVCPECGQPCSQKCGLI | 2.32
YHTGKTPFVCPECGQPCSQKNGLI | 1.93
YHTGKTPFVCPECGQPCSQKVGLI | 1.6
YHTGKTPFVCPECGQPCSQKRGLI | 1.92
